According to patent publication US20220048982A1 (Eli Lilly, published 2022):
Where two headings read alike, the source gives them in different places.

T1: biotinylated human α-synuclein peptide 120-140 (human, biotinylated (site not stated))
T1 construct: also called α-synuclein fragment 120-140
T1 peptide: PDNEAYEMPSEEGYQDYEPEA


How the values were obtained:
[1] = target: pHAb-dye labelled human α-synuclein fibrils (1-140) (human, UniProt P37840 1-140); assay: cell-based or functional assay
[2] = target: T2, recombinant human α-synuclein fibril (human, UniProt P37840 1-140); assay: cell-based or functional assay
[3] = target: T3, monomeric human α-synuclein (human, UniProt P37840 1-140); assay: Kinexa at 37 C, solution equilibrium
Procedure: (§1) These samples are incubated for 24 to 48 hours at 37 C to allow for steady state equilibrium to be achieved. During this time, sepharose beads are conjugated with monomeric human alpha-synuclein and blocked with a suitable non-specific binding protein (typically BSA or casein). Once steady state is achieved, a small capillary is packed with coated beads and samples of each fixed antibody/alpha-synuclein monomer are injected over the column. […] This step is repeated for each concentration of alpha-synuclein monomer and resultant fluorescent signal (proportional to percent free antibody) and then plotted as a function of fluorescent signal versus monomeric α-synuclein concentration and globally fit to a 1:1 binding model to obtain KD. Independent runs (n=3) run with technical duplicates (95% confidence intervals) are reported.

[4] = target: monomeric rabbit alpha-synuclein (rabbit); assay: Kinexa at 37 C, solution equilibrium
Procedure: as §1

[5] = target: monomeric rat alpha-synuclein (rat, UniProt P37377 1-140); assay: Kinexa at 37 C, solution equilibrium
Procedure: as §1

[6] = target: monomeric mouse alpha-synuclein (mouse, UniProt O55042 1-140); assay: Kinexa at 37 C, solution equilibrium
Procedure: as §1

mIgG1-hAsyn100-140 [7] = target: T4, mIgG1-hAsyn100-140 (mouse; human, UniProt P37840 100-140); assay: MSD-SET solution equilibrium at 25 C
T4 construct: C-terminal fragment of human α-synuclein fused onto the C-terminal end of a mouse Fc; also called dimeric human alpha-synuclein; dimeric α-synuclein; not shown: mouse IgG1 Fc fragment; short unstructured linker element

mIgG1-hAsyn100-140 [8] = target: T4, mIgG1-hAsyn100-140; assay: MSD-SET solution equilibrium at 37 C
Procedure: During this incubation time, an MSD Sector plate is coated with monomeric human alpha-synuclein and blocked with a blocking reagent (i.e. BSA, casein). Following steady state equilibrium incubation times, individual antibody/mIgG1-hAsyn 100-140 mixtures are added simultaneously to the plate and allowed to incubate for 10 minutes to capture free antibody and minimize exchange with antibody in complex with mIgG1-hAsyn100-140. Following this short incubation, plates are subsequently washed and incubated with a biotinylated anti-human secondary antibody, followed by detection using streptavidin-S-tag on the MSD instrument. The resultant MSD signal (proportional to % free antibody) is then plotted as a function of mIgG1-hAsyn100-140 concentration and globally fit to a four parameter fit to obtain IC₅₀ (KD). Reported 95% confidence intervals represent the fitting of N=3 independent runs each with technical duplicates. The avidity-factor is the ratiometric difference between monomer affinity and dimer affinity and represents the selectivity in binding between monomeric and dimeric α-synuclein for antibody.

[9] = target: monomeric human alpha-synuclein fragment 1-121 (human, UniProt P37840 1-121); assay: Kinexa at 37 C, solution equilibrium
Procedure: as §1

[10] = target: monomeric human alpha-synuclein fragment 1-115 (human, UniProt P37840 1-115); assay: Kinexa at 37 C, solution equilibrium
Procedure: as §1

[11] = target: T3, monomeric human α-synuclein; assay: Kinexa at 37 C, solution equilibrium; remark: listed apart in the source
Procedure: as §1

[12] = target: T2, recombinant human α-synuclein fibril; assay: ELISA, plate coated with fibril at 1 µg/ml
Procedure: An Enzyme-Linked Immunosorbent Assay (ELISA) is performed for quantitative determination of antibody affinity to recombinant human α-synuclein fibril.
(§2) An ELISA plate is coated with recombinant human α-synuclein fibril at 1 μg/ml in PBS overnight at 4° C. The next day, the plate is incubated with 1% casein for 1 hour at room temperature to block non-specific binding sites on the plate. […] After incubation, the plate is washed three times with 0.1% PBST to remove un-bound antibody and incubated with a detection agent (1:1000 diluted goat-anti-human Kappa-AP) in 0.1% PBST for 1 hour at room temperature. The plate is washed three times with 0.1% PBST to remove un-bound detection agent and incubated with a substrate for 15 minutes at room temperature. The OD is then read in an ELISA plate reader at 560 nm. The binding curve is obtained based on the antibody concentration and OD560 readout.

mIgG1-hAsyn100-140 [13] = target: T4, mIgG1-hAsyn100-140; assay: ratio of Kinexa KD for monomeric human α-synuclein to MSD-SET KD for dimeric α-synuclein, 37 C
Procedure: During this time, sepharose beads are conjugated with monomeric human alpha-synuclein and blocked with a suitable non-specific binding protein (typically BSA or casein). Once steady state is achieved, a small capillary is packed with coated beads and samples of each fixed antibody/alpha-synuclein monomer are injected over the column. […] This step is repeated for each concentration of alpha-synuclein monomer and resultant fluorescent signal (proportional to percent free antibody) and then plotted as a function of fluorescent signal versus monomeric α-synuclein concentration and globally fit to a 1:1 binding model to obtain KD. Independent runs (n=3) run with technical duplicates (95% confidence intervals) are reported.
During this incubation time, an MSD Sector plate is coated with monomeric human alpha-synuclein and blocked with a blocking reagent (i.e. BSA, casein). Following steady state equilibrium incubation times, individual antibody/mIgG1-hAsyn 100-140 mixtures are added simultaneously to the plate and allowed to incubate for 10 minutes to capture free antibody and minimize exchange with antibody in complex with mIgG1-hAsyn100-140. Following this short incubation, plates are subsequently washed and incubated with a biotinylated anti-human secondary antibody, followed by detection using streptavidin-S-tag on the MSD instrument. […]

[14] = target: T1, biotinylated human α-synuclein peptide …; assay: ELISA on biotinylated human alpha-synuclein peptide 120-140, detection with goat anti-human kappa-AP, OD560
Procedure: as §2
(§3) Binding full-length (1-140) α-synuclein is also determined. The procedure is essentially as described above for α-synuclein fibril binding.

[15] = target: T3, monomeric human α-synuclein; assay: ELISA on plate-coated full-length (1-140) human alpha-synuclein, detection with goat anti-human kappa-AP, OD560
Procedure: as §2, §3

[16] = target: truncated human α-synuclein fragment 1-120 (human, UniProt P37840 1-120); assay: ELISA on plate-coated truncated human alpha-synuclein fragment 1-120, detection with goat anti-human kappa-AP, OD560
Procedure: as §2, §3

Average IC50, inhibition of fibril internalization into SH-SY5Y cells [1] [µg/mL]	IC50 Standard Deviation, inhibition of fibril internalization into SH-SY5Y cells [1] [µg/mL]	Average IC50, inhibition of alpha-synuclein aggregation in SHSY-5Y-A53T-myc cells [2] [µg/mL]	Kd [3] [nM]	Kd [4] [nM]	Kd [5] [nM]	Kd [6] [nM]	Kd (mIgG1-hAsyn100-140 [7]) [nM]	Kd (mIgG1-hAsyn100-140 [8]) [nM]	Kd [9] [nM]	Kd [10] [nM]	Kd [11] [nM]	EC50 [12] [µg/mL]	avidity factor (monomer KD against dimer KD) (mIgG1-hAsyn100-140 [13]) [fold]	EC50 (read off the curve) [14] [nM]	EC50 (read off the curve) [15] [nM]	EC50 (read off the curve) [16] [nM]	Binder
0.45	0.017	0.41	19	554	89	49.7	0.00012	0.00097	11.8	675	19	0.000193	~20000	~0.9	~1	~0.7	Antibody 1 (antibody, human IgG4 S228P, kappa, F234A L235A, V domains shown, about 1% of the N-terminal glutamic acid may be converted to pyroglutamic acid; less than about 1% of the C-terminal glycine may be clipped, IgG4PAA, kappa) VH: EVQLLESGGGLVQPGGSLRLSCAASGFTFSSYAMSWVRQAPGKGLEWVSAISGSGGDTYYADSVKGRFTISRDNSKNTLYLQMNSLRAEDTAVYYCARGYGMDVWGQGTTVTVSS VL: DVVMTQSPLSLPVTLGQPASISCRSSQSLVHSDGNTYLMWFQQRPGQSPRRLIYKVSNRNSGVPDRFSGSGSGTDFTLKISRVEAEDVGVYYCMQGTKQYPTFGQGTKLEIKR
0.56	0.026	0.4	65.6	1020	140	99.3	0.0032	–	–	–	–	0.000161	–	~5	~0.8	~0.6	Antibody 2 (antibody, human IgG4 S228P, kappa, F234A L235A, V domains shown, about 1% of the N-terminal glutamic acid may be converted to pyroglutamic acid; less than about 1% of the C-terminal glycine may be clipped, IgG4PAA, kappa) VH: EVQLLESGGGLVQPGGSLRLSCAASGFTFSSYAMSWVRQAPGKGLEWVSAISGSGGDTYYADSVQGRFTISRDNSKNTLYLQMNSLRAEDTAVYYCARGYGMDVWGQGTTVTVSS VL: DVVMTQSPLSLPVTLGQPASISCRSSQDLVHSDGNTYLMWFQQRPGQSPRRLIYKVSDRNSGVPDRFSGSGSGTDFTLKISRVEAEDVGVYYCMQGTKQYPTFGQGTKLEIKR
